Assay results: a protein production outcome set (Wang et al. 2014)

Experiment: label from the status in PepcDB records
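Note: failed if final PepcDB status was selected cloned or expressed and not failed if soluble or beyond.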

Sequence	protein production
MSSVERYLSQLVKTEPQLETLKELYIGKKWHQLTEELLKLIHSGQVNRINLVELYDSFIREFESSLNPLALVRILVGIARKNYRDLNKALEFVDYATNSKAFISADEEASLFLKSETARLKLEGGNLSGVKQILEEVGVAMESTRDLDTVVHSSYHRVCAQYYKAVGPATKYYSSALLFFQYAPLDSFTVEERVHWAYDLGVASIVAETIFNFGEILEYDIMQSLKSEKLQWLLELLEAFKYGSIEKFNQVSNDHMSYYFVL	failed
MDDERTVRSEVHVVVEDGEIVAIEDGYASGDEVVDATEEVVIPGLVNCHTHMYALPIRGAPLAASPESFYEALVDIWWNVDEAFTERDARLSALGSSVEMLQSGVTTFCDNYSGPNTLPGGLDAVAEGVAQTPIRGMITFETTARNSEAQARDGIAENQRFIDEAEDQYDTVSGHYCLHTLFTNTEDIVAECVDRATDDNRPIQIHLEEGLVDVHESIADYGERPVFALEDMGFFDAEVIAAHCVHSTESEIEVLAEHDVNVAHNPYSNINNAVGIADVETMQAHEMTIGLGDDGWDPDMFETMRSAVGIHKLKQRNPSGFDMATALEWATIGSAAVLGMDDAVGSIEVGKRGDFVTLDLGPNPVLDGSAPYYVVSAASRADVTRTIIDGESVYDQQSGVTGVDDSDMTAVGDASAELWERL	failed
MNAKPKDTVIANARIVLADRVIEQGWLALANGRVAEIGEGRAPAGAEDAGGDLIMPGLIELHTDHLEAHYVPRPKVFWNPVAAVVSYDGQLATSGITTVFDSLRVWREDGAEEVDGRAGVLAAAITTARDADLLRADHFLHLRCEIPMPSVVEEAKELIDRPDVKLMSLMDHTPGQRQFRDEGKLRDYYRGKNGGKTDAQLDELFAKRFEYQKAYAATNMREIVALAHQYNIPLASHDDTTEENVADAVRDRVSVAEFPTTLEAARGLHQAGIDILMGAPNVVRGGSHSGNIAAVDLAREGLLDILSSDYIPSSLLMAALQLPEHVPAISLPAAVRTVTKAPAEAVGLSDRGEIAVGKRADLIRVHIAGSVPVVRSVWREGGRVA	failed
MERITDVPESPAQSADPARVNDYDSFAEAYSAETENNLVNAYYARPAMLALAGDVAGRRILDAGCGSGPLSAALRDRGAVVTGIDASAGMLALARRRLGDDVALHVVDLSDRLPFDDGAFDDVVASLVLHYLEDWGPTLAELRRVLRPGGRLIASVDHPFVAYTFQDPRPDYFATTSYTFDWTFNGQSVPMKFWRKPLHAMTDAFTTAGFRLSVISEPQPDPAAIELFPDAFHDLSTKTCFLFFVVEVPPSATGSDDY	failed
SLGSLPPAAMESMESLRLKDKNEPVQNLPIQKSIDDVDSKLKGIGKPRKFSKFSLYKQLHRHHLHDADSISSIDSTSSYFNHYRSHHNLIHGLKPHFKLFHPSS	failed
MQLEPRINTFSMEAMFTFSSTFLYDSIVDSSRPILATSLLGCDVTDPERRATTACCICEETLSELHMTRPTQKVKAVSGPTRERHIIFSTCKPVL	failed
MKGNALCTGEPVMTIETRGGGSEDIAVLPLDPTGNITRLFIRERCNDSSDPECKTGQWRLGSVDISRENTPASTRYAWRPGNNASEDDFEPLGMSLVPGNTPGEGTLFVIDIARPQSVRIWQLDISGGEITKATLATPADTQTGARLTAANSLQAVRNDDSRSFHLTITRFDEYGLLPFRPTPWPALVRINNGVIQPPPAQDFRNANGIIRPCAGCDLVIASYWERRLRFVSKENGEIGEYASAELPIRPDNLRLDGERILIAGQRRVDLTALNLLVSPHIPSPSGVYAIDTRSLGPDTVPTLLWEGGWKHGHSVATAVALPGNRLAIGQINTPGILIADCSPLEHHHHHH	failed
MSLRLADFGFTDGINEIIAITENEDGSWNAAPIGIIVEDSSSDTAKAKLYRNRTRANLERSGVLFANVTDDALVFAVSSFGNLNDDWYASPNPPIIKGAMAWCRFEAEMRSGVAHLKLTDGEIIEKRVRAINRGLSAVIEALVHATRYVAIKSDERRKELLERIHYYREIVQKCGSEREKRAFEIIMEKIGEGHHHHHH	not failed
MITNKKCKGCGAFLNDQINTIGYTPKINETKTNLCQRCFKLIHYNKLEKVSTNLNQSIKETINTLNFSNLQIFAVLDILDLEHTIIDELKEYQNKIIFLVNKIDLLPQRYNSELVNENVVKTLINHGFIDPKIIYVSTHSNTSLKKVMDYIKNATNKKQKSIFFGKSNVGKSSLINALLALNKIKTKLTISSYTNTTINLNKINIQEHQILDAPGVCFDENILNYVRDEDNKSIMISYGAKAINYQINPQQALMISGLVGIQYLKGQKTTFTLYVSSQLDIHRCKLENFIMNFNKRYLLAKFNYLNQDLEFVDHLITLNKDQKTNICIAGLGLLVINAHAEQICIRLPKSVGLKVAKYAII	failed
MKKEFSAGGVLFKDGEVLLIKTPSNVWSFPKGNIEPGEKPEETAVREVWEETGVKGEILDYIGEIHYWYTLKGERIFKTVKYYLMKYKEGEPRPSWEVKDAKFFPIKEAKKLLKYKGDKEIFEKALKLKEKFKL	not failed
MGSTHHHHHHSSGRENLYFQGHMEEEMQRHIKLTPSQTTPVVLVVGDPGRVDKVKMLCDSYVDLAYNREYKSVECTYKGQKFLCVSHGVGSAGCAICFEELMNNGAKVIIRAGSCGSLQPTQMKRGDICICNAAVREDRVSHLMIYSDFPAVADFEVYDTLNKVAQELEVPVFNGISLSSDLYYPHKIIPTRLEDYSKANVAVVEMEVATLMVMGTLRKVKTGGIFIVDGCPLKWDEGDFDNNLVPEKLENMIKISLETCARLAKKY	not failed
MYKYITILGAAGQIAQKLTATLLTYTDMHITLYGRQLKTRIPPEIIDHERVTVIEGSFQNPGKLEQAVTNAEVVFVGAMESGSDMASIVKALSRKNIRRVIGVSMAGLSGEFPVALEKWTFDNLPISYVQGERQARNVLRESNLNYTILRLTWLYNDPEKTDYELIPEGAQFNDAQVSREAVVKAIFDILHAADETPFHRTSIGVGEPGTHYDKPSFH	not failed
VGKPKMDVDLLQVDADLKKEIFDAYYNTMKTAVMTEEKLAREVEIDKVKDTVKEVYAEKFSEHEEEAQLLKEVKQIAEDLEKDVVRELITIDKIRPDGRKLDEIRH	not failed
GLGFMALDEDLRIIYVNSGCLRHVRRSRDELLGRVVTEVLPETQGSYFDALCRKVLATGREQQTRVDSLYSPGMTIEVTAAADSGALVVHFRDVTAE	not failed
MSGFHYPGVPVTALLYSLWPLFALIVGGYALRRWDFPGEAFWPAAERLNYFILFPALLFSNLATAPLDDPGLARQALAVLLGLGVAWLALLLCKRWRGWDAGRFGAIAQGVLRFNTYLGLAAVGSLYGKPGLTLAALMLALMVPTVNVMSVWALTAERGISLRALLLPILKNPLILACLAGALVNLAGVGLPGGSDRLLNLLAVASLPLGLLCVGAALKPQELGGEVAALGWNCAARLLAMPLLAFAIARGLGLPSMESAVLVLFFALPTAPTAYVLTRQLGGDGHLMAGIITLQTLLSGATLVGVLLVLQGSP	failed
MAEAHVTKVGIVGIGFIGSDHLHRLTKTVANVDVTAVCDIVPGKAQKALDQQGLTATTYEDYHDLVNDPNVEVVVCTANNEAHYEIVMAALKAGKFTFCEKPLALDAKQCMDIIDSEKKLGRRMLQVGFMRHYAPEYVQMKKMIDDGVIGKPLMMDQRHYNQTQPEEYDSSRSIIETAIHEIDIDHWLVNDDYANIRVFSPKQTRHVQNAKIQDPQIVMIETKSGINIINEVFVRCQYGYDIKCDVIGEEGVLELPTVPQVATRLNAQYSTAILTDWKARFESAYDIEFRDFINHVSQNESPVGPSAWDGYIAAVTADAALKSLAEDGAKQDLDFPSTPAFYTESEKVSE	failed
MNSKNTICLWYDSAALEAATFYAETFPDSAVLAVHRAPGDYPSGKEGDVLTVEFRVMGIPCLGLNGGPAFRHSEAFSFQVATDDQAETDRLWNAIVDNGGEESACGWCRDKWGISWQITPRVLSEAIASPDRAAARRAFEAMMTMGRIDIATIEKAFKG	not failed
MGFSFLLATVQKERMKRRSRTRSRSRRRAKQDPKTWVARYIPQDLLIEILTRLPPKSVMRFKCVSKFWSSLLSSRYFCNRFLIVPSQPQPSLYMCLLDRYNYSKSLILSSAPSTSPYSFVFDQDLTIRKMGGFFLRILRGFIFFTRNLKARIYNPTTRQLVILPTIKESDIIAGPPYNILYFICHDPVNDRYKLLCTVSYASDNDLQNLKSELWIFVLEAGGSWKRVANEFPHHVPSHLDLNMNGVLYFLAWTDPHTCMLVSFDVRSEEFNTMQVPRNAGDTLPRQEKGVVNRVW	failed
MRKVLMFLSTALLLAILSLSFTGLDLKAKAASDLYPLPAPIIDVFPDDGLAKDMAKNLNKDSVNDVIDQDDLDALTGLGFETSTITNDSMQLLERAMFNNVTDVSIMEFGAKLTEFPDITTIPHLKTLFFADPPGRLTRNLSLPNYQNYPEMDTITMSGNNLIGSIPDFTGMPALKQLYMSEMLITSDELPNFNNIPLLITLDLSSNQLTTIPDFQNIPNLTFLDLNANLLTNTPDFQNLPKLTDLNLRHNNLTGTMVNYTNLPSLESLNLDYNFLTELPSNVLDTIYVQSQNGELPDQTINQGDTCTIDLPIYFQMEETNMLVSPEVTGEYIGISVIQLPTTVNEEGNTITVDTSALSPGEYKLDVSYNHNYATGGVCSYDWNVTIN	failed
MSLSMPVPEGADAAAKEMALSDMIPYTVHYDDESVITKDDGLVQVIKLDGLYFESLTAEQIKQFERRRNTVLRSIANSDRGVYVHLIRRKVNLYPAGEGGTWFARRFNQAWRERYNKRSFYVNEIYISIVRNRFRQGAPGILDRAFSLVSGSKITKEDLESFEEQAKDVNEAANLVVQTLSGYGARKLRIQRRPEFVLDRVSRADAQVAVERFKMSWQEFQRSHGHHEVYSRDEVLDYLGEDFSEIGGFLHYLVNLEDERVPVTEMQLDRTLAVSYLDFKMLSNMMAVQNLSGTRAGAMLSMAEWPARTPSRMLDEFLKQPVEYIITQSFFFTDRISAEHDMRQERRRIAVNDREGVAEEDKDEITKGLQDLTRGRSVNGLHHLTMLVHVPATTQFADPIENKRQTIADLDGAVGLLKKAFVNLGVKPVREWFAMETFFWAQLPGQAQHFMGRRGKIKSGNFAGFASLHNFAVGKIDGNLWGPAIMPFETESGTAYYFSFHREMEGMVAGHTAFTADTGAGKTTLLAALIAMGDKAYPRVFWFDNREGAKVFMCAMGGQHTTLTVQGSTGWNPMKLPDTPENRAYLVELLTLMRTCYGGKIVPDDIDRFKKAVHENYALAYPDRRLLNVAWCFGQGELAKDMRVWHGANGIEGANWGVFDNEHDNIDLTNCRHYCYEMRQLIKDGTARPELPVVLSYPFHRIEQSMNGEPFILVLEEGQNLVKHAYWREKIDSYIMQIRRKNGLLVFVTPDAKYLYCETDSIQKQTATKIYLPNGEAKRTDLVDVLGLTPAEYEFVRDTPPENRTFLIRRGNESIKAKFDLSDMPEFIPVLSSNDKGVALMEEIIRELETDDPEQWVPVFMERALAKNTHNLKQKGA	failed
MKDREIFAGLSTTVPFVLRLDGRSFHRFSKDRYKKPYDKVFSDAMVKTARALVTDSGLSPSFAYTFSDEISLYVPAPVFDCRVEKLASVSAAFAASAFTLYAGASEPLAFDARVIPIEEGLFPAYLSWRQAEAWRNHMNGYAQKILQDEGVSPTNAQKQLDGMNAAALHEFAFSRGVNLALTPAWERRGICIYRDVVMRDGYNPIKDEKVSVERTIAVIDEDVPLFKSPEGTAWVLSKIRLEHHHHHH	failed
MRHTLPIAPQFYVTAPQSCPYLEGRLERKLFTALQGEHAQKLNDTLSKQGFRRSQNVLYRPSCAECSACLSARIRVADFEPTRTQRRVMKRNADLRRNATSPWATEDQYALFRRYLDDRHADGGMADMDIFEFAAMIEETPIRSRVIEYSRPGDTPSNRPLSAVCLTDIFDDGLSMVYSFYDPDLAGRSLGAYVILDHIEIAREAGLPYVYLGYWVPGSRKMGYKATYSALEIYKGGRWQAIGQPSDHRAELHPLSVDPIAEQVARISLPEARSGDRSRDLEHHHHHH	not failed
